Positions count from the first letter of the chain named. Names may count otherwise. Read-outs that look alike come from different tables or passages of the source.
What was measured:
[1] = system: aroA gene-mutant E. coli strain AB2829; experiment: In vivo complementation: growth on solid M63 restrictive medium; format: cell-based; design: key: −: failed to grow; +: able to grow
How it was run: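 aroA-deficient E. coli AB2829 carried plasmids encoding EPSPS N-terminal (pACYC184) and C-terminal (pBR322/pKU2100) fragments, alone or together. Strains were streaked on solid M63 restrictive medium and grown overnight at 37 °C. Growth indicated EPSPS activity by fragment complementation.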

[2] = system: aroA-mutant E. coli strain AB2829; experiment: Growth in M63 restrictive media with different concentrations of glyphosate; format: cell-based
Description: aroA gene-mutant E. coli strains AB 2829 carrying plasmid pKU2004, pKU2006 or pKU2007 were inoculated in liquid LB medium and incubated overnight. A sample of the culture was centrifuged at 4000 rpm for 3 min and re-suspended in 0.9% physiological saline. After a further centrifugation, the supernatant was discarded. The pellets were re-suspended in physiological saline and inoculated at an initial concentration of OD600 0.04 into a liquid media comprising 0, 50 or 100 mM glyphosate for overnight culture at 37° C. Absorption (OD600) was measured at intervals.
In order to test whether the mutated EPSPS fragments perform functional complementation in vivo, plasmid pKU2105 and pKU2333 were constructed, which encode the N-terminal fragments N218-G96A and N227-G96A of E. coli EPSPS, respectively. They were introduced into aroA-mutant E. coli strain AB2829 (aroA−, from Yale University) together with their corresponding plasmids encoding C219 and C228 respectively. The growth was detected in the M63 restrictive media with different concentrations of glyphosate.

EPSPS = system: EPSPS
Description: (1) 95 μl substrate (50 mmol/L HEPES buffer (pH 7.5), 1 mmol/L PEP, 1 mmol/L S3P) was pre-warmed at 28 °C in an incubator for 5 min.
(2) 5 μl enzyme was added and the reaction was kept in an incubator at 28 °C for 1-20 min (depends on the enzyme activity). After that, 800 μl MG/AM/NP was added and the reaction was mixed for 1 min.
(3) 100 μl 34% sodium citrate was added and the reaction was mixed for half an hour. The OD660 was measured on a spectrometer.
The enzyme activities and the Km values to substrates of these three proteins were measured.

B1: N73: E. coli EPSPS N-terminal fragment, N-terminus to residue 73 (protein, UniProt P0A6D3 1-73, looked up, fragment)
chain: MESLTLQPIARVDGTINLPGSKSVSNRALLLAALAHGKTVLTNLLDSDDVRHMLNALTALGVSYTLSADRTRC
[1]; N-terminal fragment alone
  complementation condition, N-terminal: −

B2: EPSPS-G96A (protein, UniProt P0A6D3 1-427, looked up, variant G96A)
3-phosphoshikimate …: MESLTLQPIARVDGTINLPGSKSVSNRALLLAALAHGKTVLTNLLDSDDVRHMLNALTALGVSYTLSADRTRCEIIGNGGPLHAEGALELFLGNAATAMRPLAAALCLGSNDIVLTGEPRMKERPIGHLVDALRLGGAKITYLEQENYPPLRLQGGFTGGNVDVDGSVSSQFLTALLMTAPLAPEDTVIRIKGDLVSKPYIDITLNLMKTFGVEIENQHYQQFVVKGGQSYQSPGTYLVEGDASSASYFLAAAAIKGGTVKVTGIGRNSMQGDIRFADVLEKMGATICWGDDYISCTRGELNAIDMDMNHIPDAAMTIATAALFAKGTTTLRNIYNWRVKETDRLFAMATELRKVGAEVEEGHDYIRITPPEKLNFAEIATYNDHRMAMCFSLVALSDTPVTILDPKCTAKTFPDYFEQLARISQAA
[2]
  growth in M63 medium containing 50 mM glyphosate: grew well
[2]; 100 mM glyphosate
  growth in M63 medium containing 100 mM glyphosate: still grew well

B3: EPSPS: E. coli wild type full length 5-enolpyruvylshikimate-3-phosphate synthase (protein, UniProt P0A6D3 1-427, looked up)
chain: B2 3-phosphoshikimate … with A96G
modifications: full-length
notes: E. coli wild type full length 5-enolpyruvylshikimate-3-phosphate synthase
EPSPS; PEP and S3P both 1.0 mM
  specific activity: 44 ± 2 mol/min/mg
EPSPS; read-out: Km [PEP], S3P 1 mM, PEP varied from 50 to 200 μM
  Km: 14 ± 3 µM
EPSPS; read-out: Km [S3P], PEP 1 mM, S3P varied from 50 to 200 μM
  Km: 45 ± 1 µM
[2]
  growth in M63 medium containing 50 mM glyphosate: inhibited from growth

B4: C74: E. coli EPSPS C-terminal fragment, residue 74 to C-terminus (protein, UniProt P0A6D3 74-427, looked up, fragment)
chain: EIIGNGGPLHAEGALELFLGNAGTAMRPLAAALCLGSNDIVLTGEPRMKERPIGHLVDALRLGGAKITYLEQENYPPLRLQGGFTGGNVDVDGSVSSQFLTALLMTAPLAPEDTVIRIKGDLVSKPYIDITLNLMKTFGVEIENQHYQQFVVKGGQSYQSPGTYLVEGDASSASYFLAAAAIKGGTVKVTGIGRNSMQGDIRFADVLEKMGATICWGDDYISCTRGELNAIDMDMNHIPDAAMTIATAALFAKGTTTLRNIYNWRVKETDRLFAMATELRKVGAEVEEGHDYIRITPPEKLNFAEIATYNDHRMAMCFSLVALSDTPVTILDPKCTAKTFPDYFEQLARISQAA
[1]; C-terminal fragment alone
  complementation condition, C-terminal: −
